Reference: patent US20220241202A1, “METHOD AND VEHICLE FOR DELIVERING AGENTS ACROSS THE BLOOD-BRAIN BARRIER” (priority 2019, published 2022)

What was measured:
[1] = system: CAD cells; test: EV secretion of GFP-tagged 72Q huntingtin^exon1 from CAD cells with or without β amyloid peptide; format: cell-based; conditions: 12.5 μg/ml β amyloid peptide, added 6 hours after transfection, media collected at 48 hours
Experimental: CAD cells were transiently transfected with GFP-tagged 72Q huntingtin^exon1 and a vector control, CSPα, DnaJB2long, or DnaJB6long. 6 hours after transfection, the cells were treated with 12.5 μg/ml β amyloid peptide (Aβ) or left untreated. 48 hours after transfection, the media was collected, EVs were prepared, and EV secretion of GFP-tagged 72Q huntingtin^exon1 was measured.

[2] = system: CAD cells; test: Nanoscale flow cytometry of EVs secreted from CAD cells expressing GFP-72Q huntingtin^exon1; format: cell-based
Experimental: (§1) Cell lines were transfected with the molecular chaperone CSPα and a GFP-tagged protein. CAD cells (catecholaminergic derived CNS cells) were the cell line utilized. Other cell lines, including patient-derived cell lines, may also be utilized. cDNAs encoding for myc-tagged CSPα or vector alone and GFP-72Q huntingtin^exon1 were transiently transfected with Lipofectamine™ 3000 (Invitrogen) in Opti-MEM™ medium. Media was changed to serum-free media 6 hours post-transfection. Media was collected 48 hours after transfection, spun at 300×g for 5 min to remove cell debris and evaluated without further processing by nanocyte tracking analysis, nanoscale flow cytometry analysis and dot blot analysis. For western blot analysis, EVs were isolated from the unfractionated media by exoquick precipitation solution (SBI) and solubilized in sample buffer. Following media collection, cell viability was determined using an XTT assay (New England Biolabs). When resveratrol was used, it was added to the serum-free media 6 hours post-transfection at the time of the media change.
For NTA and nanoscale flow cytometry analysis, all samples were diluted 25 fold using 0.2× phosphate buffered saline that had been filtered twice through 0.2 μm filter. For NTA analysis, all samples were analyzed using the Nanosight LM10 (405 nm laser, 60 mW, software version 3.00064). Samples were analyzed in triplicate for 60 seconds per replicate with a count range of 20-100 particles per frame. A variety of NIST (Thermo Scientific 3000 Series) standards were analyzed, each the day prior to sample analysis. The system was cleaned between each sample and checked for any sample carryover using the PBS diluent. NTA measures EVs within a size range from about 30 nm to about 1,000 nm.
Samples were similarly prepared for nanoscale flow cytometry as for NTA. All samples were analyzed using the Apogee A50 flow cytometry platform. Light scatter was provided using the 405 nm laser (75 mW); GFP signal was generated using the 488 nm laser (50 mW, 535/35) and far red signal was generated using the 630 nm laser (75 mW, 680/35). All samples were analyzed for 60 seconds. Optimization was performed to insure single EVs were being analyzed and single events were triggered by light scatter only. The system was cleaned each day prior to sample analysis and a variety of silica and polystyrene standards (Apogee 1493 standards) processed for instrument set up and QC. The silica standards were used to assess the relative size range of EVs. Nanoscale flow cytometry measures EVs within a size range from about 100 nm to about 1,300 nm. […]

[3] = system: CAD cells; test: Cell viability after media collection (XTT assay); format: cell-based; conditions: various levels of CSPα expression
Experimental: as §1

[4] = previously shown; cited from earlier work
[5] = system: naive CAD cells; test: EV delivery of GFP-72Q huntingtin^exon1 cargo to naive recipient CAD cells (live cell fluorescence imaging); format: cell-based; conditions: conditioned media applied to naive cells; imaged 1-48 hours
Experimental: Images of live cells were taken with the EVOS FL Auto Imaging System. Images of donor cells were taken at the time of media collection. Images of recipient cells were taken between 1-48 hours. The intensity of the GFP-72Q huntingtin^exon1 varied among cells and a single slider was used until the on-screen brightness of the lowest intensity aggregate was satisfactory and used this setting to capture images in high-quality mode. Where indicated, after the 300×g for 5 minutes conditioned media spin to remove cell debris, 60 μl of Exo-Red (SBI) was incubated with 1 ml media containing EVs for 10 minutes at 37° C. to label the RNA EV cargo. 150 μl of exo-quick was added, the labelled EVs were placed on ice for 30 min and then centrifuged for 3 minutes at 20,000×g. The labelled EV pellet was resuspended in 1 ml of DMEM-F12 media and applied to target cells.

[6] = cells express the protein, p<0.0001
[7] = presence of CSPα, no resveratrol

## β amyloid peptide: β amyloid peptide (Aβ, AggreSure™ obtained from AnaSpec)
[1]
  secretion of GFP-tagged 72Q huntingtin^exon1 by CSPα, DnaJB2long and DnaJB6long: increased the secretion of GFP-tagged 72Q huntingtin^exon1

B1: CSPα: cysteine string protein alpha, DnaJ domain-containing protein chaperone, myc-tagged, expressed in CAD cells (protein, UniProt Q9H3Z4 1-198, looked up)
DnaJ homolog subfamily C …: MADQRQRSLSTSGESLYHVLGLDKNATSDDIKKSYRKLALKYHPDKNPDNPEAADKFKEINNAHAILTDATKRNIYDKYGSLGLYVAEQFGEENVNTYFVLSSWWAKALFVFCGLLTCCYCCCCLCCCFNCCCGKCKPKAPEGEETEFYVSPEDLEAQLQSDEREATDTPIVIQPASATETTQLTADSHPSYHTDGFN
modifications: myc tag
notes: cysteine string protein alpha, DnaJ domain-containing protein chaperone, myc-tagged, expressed in CAD cells
[2]; [6]
  Secretion of EVs containing GFP-tagged 72Q huntingtin^exon1: dramatically increased
  percentage of EVs containing GFP-72Q huntingtin^exon1 within the total EV pool: dramatically increased
[2]; p<0.0001
  increase of export of EVs containing GFP-72Q huntingtin^exon1 within the 180-240 nm subpopulation: > 400%
[2]; [7]
  EVs containing GFP cargo within the 180-240 nm subpopulation: 1%
  EVs containing GFP cargo within the <180 nm subpopulation: 0.06%
  EVs containing GFP cargo within the >240 nm subpopulation: 1.6%
[2]; various levels of CSPα, parallel western blot
  180-240 nm EV export of GFP-72Q huntingtin^exon1 as a function of cellular CSPα expression: correlates with increases in 180-240 nm EV export
[3]
  Cell viability after media collection: not influenced

B2: CSPαHPD-AAA: loss-of-function CSPα mutant that does not interact with Hsp70 ATPases (protein, UniProt Q9H3Z4 1-198, looked up, variant H43A P44A D45A)
DnaJ homolog subfamily C …: MADQRQRSLSTSGESLYHVLGLDKNATSDDIKKSYRKLALKYAAAKNPDNPEAADKFKEINNAHAILTDATKRNIYDKYGSLGLYVAEQFGEENVNTYFVLSSWWAKALFVFCGLLTCCYCCCCLCCCFNCCCGKCKPKAPEGEETEFYVSPEDLEAQLQSDEREATDTPIVIQPASATETTQLTADSHPSYHTDGFN
[4]
  export of GFP-72Q huntingtin^exon1: does not
[5]
  GFP-72Q huntingtin^exon1 cargo / aggregates in recipient CAD cells after media application: low levels of GFP signal at 24 hours
